Experimental data: patent publication US20210238276A1 (INTEGRAL MOLECULAR, published 2021)
Where a chain is given by its changes, count along the chain named.

B1: AB101 (scFv)
scFv: ALTQPSSVSANPGETVKITCSGSSNSYGWYQQKSPGSAPVTVIYYNDKRPSDIPSRFSGSKSDSTHTLTITGVRAEDEAVYFCGSYDSTYVGIFGAGTTLTVLGQSSRSSGGGGSSGGGGSAVTLDESGGGLQTPGGTLSLVCKASGFTFSSNAMGWVRQAPGKGLEWVAGISSDGRYTKYGSAVKGRATISRDNGQSTVRLQLNNLRAEDTGTYFCAKAFGNNYRRIYAGQIDAWGHGTEVIVSS
notes: Chicken-derived clone used as a control; the four lead clones were tested as scFv-human IgG1 Fc; also called MAb AB101
B2: AB108 (Fc fusion)
scFv: ALTQPSSVSANLGGTVKITCSGSSGSYGWYQQKAPGSAPVTLIYRNDKRPSDIPSRFSGSESGSTGTLTITGVQAEDEAVYFCGGYDSSAGYAAFGAGTTLTVLGQSSRSSGGGGSSGGGGSAVTLDESGGGLQTPGGALSLVCKASGFTFSSHGMGWVRQAPGKGLEWVGSISTGRYTFYAPAVKGRATISRDNGQSTLRLQLNNLRAEDTGTYYCTKCAGLNGCGGGEIDAWGHGTEVIVSS
notes: Bivalent scFv-Fc; also called MAb AB108; not shown: Fc fragment of human IgG1, cloned in frame with the scFv
B3: AB111 (Fc fusion)
scFv: ALTQPSSVSANPGETVKITCSGSGSWYGWFQQKSPGSAPVTVIYSNDKRPSDIPSRFSGSKSGSTSTLTITGVQVEDEAVYYCGNWDIFGAGTTLTVLGQSSRSSGGGGSSGGGGSAVTLDESGGGLQTPGGALSLVCKASGFTFSSHGMGWVRQAPGKGLEWVASISTGRYTFYAPAVKGRATISRDNGQSTVRLQLNNLRAEDTATYYCTKCAGLNGCGGGEIDAWGHGTEVIVSS
notes: Bivalent scFv-Fc; also called MAb AB111; not shown: Fc fragment of human IgG1, cloned in frame with the scFv

Assays:
Assay in all cases: flow cytometry, alanine-scan library in HEK-293T
hsGLUT4 Q295A = biological target: T1, hsGLUT4 Q295A (human, UniProt P14672 1-509)
T1 sequence: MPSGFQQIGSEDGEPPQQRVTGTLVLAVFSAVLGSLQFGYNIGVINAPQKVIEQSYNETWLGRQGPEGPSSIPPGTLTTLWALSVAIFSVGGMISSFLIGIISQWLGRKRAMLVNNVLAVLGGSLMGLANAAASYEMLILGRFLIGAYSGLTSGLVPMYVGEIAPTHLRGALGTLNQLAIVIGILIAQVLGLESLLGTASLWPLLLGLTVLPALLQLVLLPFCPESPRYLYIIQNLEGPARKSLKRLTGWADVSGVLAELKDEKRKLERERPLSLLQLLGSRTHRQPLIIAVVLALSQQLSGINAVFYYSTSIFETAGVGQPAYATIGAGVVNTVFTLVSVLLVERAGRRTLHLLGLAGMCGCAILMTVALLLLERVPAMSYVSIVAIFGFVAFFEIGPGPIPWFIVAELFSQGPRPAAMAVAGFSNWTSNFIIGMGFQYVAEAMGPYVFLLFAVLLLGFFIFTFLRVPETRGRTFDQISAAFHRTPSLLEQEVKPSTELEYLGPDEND
Procedure, shortened: (§1)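 HEK-293T cells expressing individual GLUT4 alanine mutants were stained 48 h post-transfection with anti-GLUT4 scFv MAbs (2 μg/ml), then biotinylated secondary and streptavidin-PerCP, and read by high-throughput flow cytometry. Where used, cytochalasin B (10 uM final) was given for 30 min before and during primary antibody staining.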

hsGLUT4 D506A = biological target: T2, hsGLUT4 D506A (human, UniProt P14672 1-509)
T2 sequence: T1 sequence with A295Q, D506A
Procedure, shortened: as §1

hsGLUT4 E345A = biological target: T3, hsGLUT4 E345A (human, UniProt P14672 1-509)
T3 sequence: T1 sequence with A295Q, E345A
Procedure, shortened: as §1

hsGLUT4 G446A = biological target: T4, hsGLUT4 G446A (human, UniProt P14672 1-509)
T4 sequence: T1 sequence with A295Q, G446A
Procedure, shortened: as §1

Molecule	% of binding to wild type GLUT4 (hsGLUT4 Q295A) [%]	% of binding to wild type GLUT4 (hsGLUT4 D506A) [%]	% of binding to wild type GLUT4 (hsGLUT4 E345A) [%]	% of binding to wild type GLUT4 (hsGLUT4 G446A) [%]
1F8 (antibody)	81	29	93	108
B1	102	34	78	95
B2	113	105	88	86
B3	138	158	200	71
